What all share (test): fluorescence anisotropy
Background: Fluorescence polarisation rises when a labelled molecule tumbles more slowly, as on binding a larger partner.

One data set has as its target T1, TFB2M-Δ3 (human, UniProt Q9H5Q4 20-393).
T1 sequence: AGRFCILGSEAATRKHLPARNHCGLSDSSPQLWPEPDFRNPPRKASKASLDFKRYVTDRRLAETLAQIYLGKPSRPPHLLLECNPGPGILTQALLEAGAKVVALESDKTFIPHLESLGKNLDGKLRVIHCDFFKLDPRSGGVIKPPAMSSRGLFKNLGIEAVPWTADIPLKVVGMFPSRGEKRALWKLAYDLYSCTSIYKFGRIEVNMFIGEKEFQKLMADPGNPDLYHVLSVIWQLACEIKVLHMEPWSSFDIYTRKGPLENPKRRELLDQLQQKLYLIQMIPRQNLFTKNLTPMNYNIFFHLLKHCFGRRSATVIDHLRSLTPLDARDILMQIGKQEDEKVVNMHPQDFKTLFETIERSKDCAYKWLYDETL

For data set [1], the target named is T2, TFB2M-WT (human, UniProt Q9H5Q4 20-396).
T2 sequence: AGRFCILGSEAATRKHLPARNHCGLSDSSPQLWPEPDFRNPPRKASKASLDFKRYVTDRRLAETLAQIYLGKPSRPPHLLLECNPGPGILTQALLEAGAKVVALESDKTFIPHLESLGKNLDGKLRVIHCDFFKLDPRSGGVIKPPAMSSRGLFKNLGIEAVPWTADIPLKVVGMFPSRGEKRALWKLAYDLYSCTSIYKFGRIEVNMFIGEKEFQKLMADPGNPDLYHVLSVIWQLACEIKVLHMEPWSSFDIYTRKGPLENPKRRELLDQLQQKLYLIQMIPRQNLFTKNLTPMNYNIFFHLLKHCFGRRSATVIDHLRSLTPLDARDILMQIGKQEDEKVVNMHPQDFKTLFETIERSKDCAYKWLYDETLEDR

Another data set has as its target T3, TFB2M-Δ13 (human, UniProt Q9H5Q4 20-383).
T3 sequence: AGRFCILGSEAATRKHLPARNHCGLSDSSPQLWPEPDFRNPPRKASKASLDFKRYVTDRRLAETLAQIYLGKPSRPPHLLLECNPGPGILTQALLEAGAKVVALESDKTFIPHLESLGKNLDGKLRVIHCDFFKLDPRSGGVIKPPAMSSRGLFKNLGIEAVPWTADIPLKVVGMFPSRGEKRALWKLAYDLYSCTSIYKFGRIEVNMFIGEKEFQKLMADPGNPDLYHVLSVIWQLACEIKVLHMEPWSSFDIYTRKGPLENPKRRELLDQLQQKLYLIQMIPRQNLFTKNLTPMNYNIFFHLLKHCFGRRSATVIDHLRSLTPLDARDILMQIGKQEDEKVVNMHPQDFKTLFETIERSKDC

For data set [2], the target named is T4, Mtf1-Δ20 (Saccharomyces cerevisiae, UniProt P14908 1-321).
T4 sequence: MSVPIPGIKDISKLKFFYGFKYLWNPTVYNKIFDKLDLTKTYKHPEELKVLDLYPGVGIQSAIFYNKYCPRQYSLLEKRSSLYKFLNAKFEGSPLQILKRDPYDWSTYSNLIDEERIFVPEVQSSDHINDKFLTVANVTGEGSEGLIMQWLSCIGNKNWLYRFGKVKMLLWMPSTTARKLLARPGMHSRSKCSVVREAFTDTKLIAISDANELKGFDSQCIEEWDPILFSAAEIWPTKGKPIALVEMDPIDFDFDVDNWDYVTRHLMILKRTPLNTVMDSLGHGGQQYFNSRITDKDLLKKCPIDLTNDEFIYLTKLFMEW

The target in data set [3] is T4, Mtf1-Δ20. This is another data set of the same source.
The target of data set [4] is T2, TFB2M-WT. This is another data set of the same source.
Data set [5] addresses T2, TFB2M-WT. This is another data set of the same source.
Data set [6] concerns the target T2, TFB2M-WT. This is another data set of the same source.

Where two headings read alike, the source gives them in different places.

B1: LSP NT (ssDNA)
DNA: TACCGCCAAAAG
On to B1, for which the figures for the Kd in the data set with TFB2M-Δ3, in the data set with TFB2M-WT [1] and with TFB2M-Δ13 were 92 ± 3.3 nM, 169 ± 18 nM and 46 ± 5.2 nM, respectively.

B2: 15S NT (ssDNA)
DNA: ATATAAGTAATA
Take B2: the Kd – broadly, the free concentration of one partner at which half of the binding sites on the other are occupied at equilibrium, for simple one-to-one binding – was 51 ± 2.8 nM with Mtf1-Δ20 [2], ~870 nM in the data set with Mtf1-Δ20 [3] and 130 nM with TFB2M-WT [4].

B3: LSP duplex (dsDNA)
DNA 1: TACCGCCAAAAG
DNA 2: CTTTTGGCGGTA
Regarding B3, the binding signal with TFB2M-WT [5] is ~3 fold higher affinity than LSP NT.

B4: dT12 (ssDNA)
DNA: TTTTTTTTTTTT
For the molecule B4, in the data set with TFB2M-WT [6], the binding result was “binds”.

The values above are taken from paper doi:10.1101/2020.03.06.980961.
